In the assay the target is T1, endothelin B receptor (ETB) (UniProt P24530 27-442).
T1 chain: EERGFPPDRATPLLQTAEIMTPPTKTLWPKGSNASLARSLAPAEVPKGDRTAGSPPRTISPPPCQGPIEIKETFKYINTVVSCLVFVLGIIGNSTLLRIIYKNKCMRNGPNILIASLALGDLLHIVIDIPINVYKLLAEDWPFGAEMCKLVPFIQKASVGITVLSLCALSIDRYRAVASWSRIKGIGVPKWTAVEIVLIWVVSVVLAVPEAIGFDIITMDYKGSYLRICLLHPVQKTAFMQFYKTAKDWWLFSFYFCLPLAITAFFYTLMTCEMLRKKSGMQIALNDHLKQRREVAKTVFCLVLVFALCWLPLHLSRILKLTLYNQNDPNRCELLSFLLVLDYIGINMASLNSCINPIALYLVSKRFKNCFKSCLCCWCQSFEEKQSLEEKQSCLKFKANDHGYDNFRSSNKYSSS
Kind of assay: FACS. A general note: Flow cytometry measures light scatter and fluorescence of single cells or particles in a stream.

Positions count from the first letter of the chain named. Names may count otherwise. “And” between values parts separate entries of the source, which are not always exact repeats. Equal values may be shown once.

B1: xiRB49-P125T (antibody, V domains shown)
VH: QVQLQQPGAALVKPGASVKLSCKASGYTFISYWMLWVKQRPGRGLEWIGRIDPDSGGTKYNEKFKSKATLTVDKSSSTAYMQLSSLTSEDSAVYYCAREGDYAWFAYWGQGTLVTVSA
VL: DVLMTQTPLSLPVSLGDQASISCRSSQSIVHSNGNTYLEWYLQKPGQSPKLLIYKVSNRFSGVPDRFSGSGSGTDFTLKISRVEAEDLGVYYCFQGSHVPWTFGGGTKLEIK
What is called Kd is the concentration at which binding is half-saturated. For the molecule B1, the Kd came to 6 nM.

B2: Rendomab B49 (RB49), murine mAb purified from hybridoma (antibody, V domains shown)
VH: B1 VH with T115P
VL: B1 VL
B2: the Kd was 4.19 nM and 3.5 nM.

B3: recombinant RB49 (reRB49) (antibody, V domains shown)
VH: B1 VH with T115P
VL: B1 VL
In the case of B3, the Kd was 3.04 nM.

For the origin of these results see article PMC10760395 (2023).
